According to paper PMC10491584, “Structural convergence endows nuclear transport receptor Kap114p with a transcriptional repressor function toward TATA-binding protein” (Nature Communications, 2023):

Legend:
Kap114pΔ(Y933) = biological target: T1, Kap114pΔ(Y933) (S. cerevisiae, UniProt P53067 1-1004, ΔY933); assay: ITC; MicroCal iTC200, 25 °C, 20 mM HEPES pH 7.4, 150 mM NaCl; high concentration: 50 µM wild type or mutant Kap114p in the sample cell, 500 µM wild type or mutant yTBPC in the syringe; triplicate; details: both partners purified
T1 construct: Kap114p, S. cerevisiae, full length with residue Y933 deleted; also called GST-Kap114p (Δ933); source: E. coli Rosetta, purified (GST resin, MonoQ, Superdex 200)
T1 sequence (looked up): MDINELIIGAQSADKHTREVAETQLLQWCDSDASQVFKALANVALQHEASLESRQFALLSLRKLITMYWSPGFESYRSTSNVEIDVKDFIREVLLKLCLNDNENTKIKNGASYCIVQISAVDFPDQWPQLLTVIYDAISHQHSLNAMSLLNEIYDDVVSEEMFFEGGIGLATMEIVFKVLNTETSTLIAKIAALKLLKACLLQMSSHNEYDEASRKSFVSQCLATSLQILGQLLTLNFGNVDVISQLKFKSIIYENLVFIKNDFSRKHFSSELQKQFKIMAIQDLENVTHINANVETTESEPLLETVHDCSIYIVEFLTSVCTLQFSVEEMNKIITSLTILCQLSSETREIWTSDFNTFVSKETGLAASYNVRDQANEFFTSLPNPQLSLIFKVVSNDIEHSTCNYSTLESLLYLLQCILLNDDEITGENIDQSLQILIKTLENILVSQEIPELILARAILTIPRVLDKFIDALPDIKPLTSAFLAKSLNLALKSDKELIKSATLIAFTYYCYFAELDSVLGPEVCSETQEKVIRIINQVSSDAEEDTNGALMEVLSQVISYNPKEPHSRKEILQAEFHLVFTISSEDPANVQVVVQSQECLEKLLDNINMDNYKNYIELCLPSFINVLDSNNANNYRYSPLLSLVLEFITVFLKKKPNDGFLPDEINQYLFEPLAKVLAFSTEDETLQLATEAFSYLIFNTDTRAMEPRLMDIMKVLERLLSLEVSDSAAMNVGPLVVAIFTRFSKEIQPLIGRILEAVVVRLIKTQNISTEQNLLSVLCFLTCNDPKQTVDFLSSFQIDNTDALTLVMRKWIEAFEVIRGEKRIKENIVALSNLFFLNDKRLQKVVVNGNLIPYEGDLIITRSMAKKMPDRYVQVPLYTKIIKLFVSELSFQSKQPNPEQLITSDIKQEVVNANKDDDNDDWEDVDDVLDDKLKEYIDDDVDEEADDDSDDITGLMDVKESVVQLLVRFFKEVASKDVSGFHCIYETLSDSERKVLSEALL

Kap114p wild type = biological target: T2, Kap114p wild type (S. cerevisiae, UniProt P53067 1-1004); assay: ITC; MicroCal iTC200, 25 °C, 20 mM HEPES pH 7.4, 150 mM NaCl; low concentration: 25 µM wild type or mutant Kap114p in the sample cell, 250 µM wild type or mutant yTBPC in the syringe; triplicate; details: both partners purified
T2 construct: Kap114p (karyopherin-β), S. cerevisiae, full length, amplified from total genomic DNA; GST tag followed by a PreScission site (modified pGEX6p1); PreScission protease added during dialysis; also called Kap114p WT; GST-Kap114p (plasmid pGEX-6P-1-Kap114); source: E. coli Rosetta, purified (GST resin, MonoQ, Superdex 200)
T2 sequence (looked up): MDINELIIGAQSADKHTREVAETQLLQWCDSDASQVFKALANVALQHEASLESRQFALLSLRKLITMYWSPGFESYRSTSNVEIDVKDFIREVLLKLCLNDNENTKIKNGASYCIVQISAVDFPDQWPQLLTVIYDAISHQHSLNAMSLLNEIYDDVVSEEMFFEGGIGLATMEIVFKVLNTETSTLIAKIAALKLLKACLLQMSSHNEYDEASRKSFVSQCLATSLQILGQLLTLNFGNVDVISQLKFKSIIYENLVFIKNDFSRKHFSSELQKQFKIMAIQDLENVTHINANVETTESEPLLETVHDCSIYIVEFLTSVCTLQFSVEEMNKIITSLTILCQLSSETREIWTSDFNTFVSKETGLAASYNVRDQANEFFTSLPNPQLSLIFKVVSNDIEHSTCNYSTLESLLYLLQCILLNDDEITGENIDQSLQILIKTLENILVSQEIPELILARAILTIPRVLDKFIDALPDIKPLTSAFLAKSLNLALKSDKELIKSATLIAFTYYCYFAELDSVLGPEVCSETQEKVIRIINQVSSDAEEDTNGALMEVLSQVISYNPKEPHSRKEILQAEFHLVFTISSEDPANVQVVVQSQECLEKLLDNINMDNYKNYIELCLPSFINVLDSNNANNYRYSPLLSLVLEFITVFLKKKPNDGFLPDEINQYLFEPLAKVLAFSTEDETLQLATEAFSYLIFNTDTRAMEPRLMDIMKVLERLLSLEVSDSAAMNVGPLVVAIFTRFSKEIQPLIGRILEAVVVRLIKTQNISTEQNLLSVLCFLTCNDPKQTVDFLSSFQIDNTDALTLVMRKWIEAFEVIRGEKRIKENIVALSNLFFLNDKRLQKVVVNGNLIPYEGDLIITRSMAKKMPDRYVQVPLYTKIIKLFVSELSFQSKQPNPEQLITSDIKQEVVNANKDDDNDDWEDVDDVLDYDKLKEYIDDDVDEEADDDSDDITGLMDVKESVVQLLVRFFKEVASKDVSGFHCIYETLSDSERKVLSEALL

B1: yTBP^C wild type (core domain of yeast TATA-box binding protein, a.a. 61-240) (domain or fragment, S. cerevisiae, UniProt P13393 61-240, looked up)
chain: SGIVPTLQNIVATVTLGCRLDLKTVALHARNAEYNPKRFAAVIMRIREPKTTALIFASGKMVVTGAKSEDDSKLASRKYARIIQKIGFAAKFTDFKIQNIVGSCDVKFPIRLEGLAFSHGTFSSYEPELFPGLIYRMVKPKIVLLIFVSGKIVLTGAKQREEIYQAFEAIYPVLSEFRKM
notes: modified pET28a, 6xHis tag followed by a PreScission site; also called yTBPC WT; His-yTBP (61-240); source: E. coli Rosetta, purified (Ni-NTA, HiTrap SP, Superdex 75); not shown: His6, N-terminal, cleaved
Work on B1 yielded a Kd (Kap114pΔ(Y933)) of 7.7 nM and a Kd (Kap114p wild type) of 1.4 nM.
